Assay results reported in US20240270857A1 (CHIA TAI TIANQING PHARMACEUTICAL GROUP, published 2024).
Residue numbers refer to the chain shown, from its start.

What was measured:
[1] = target: T1, Human IL-1Rrp2/IL-1R6 protein, His Tag (ACROBiosystems, IL2-H52H6) (human, UniProt Q9HB29 20-335); experiment: ELISA, plate coated with human IL-1Rrp2/IL-1R6 His Tag, HRP-protein A/G, OD450
T1 construct: Bought protein; the soluble protein is likely only the extracellular part; also called hIL-36R; human IL36R antigen; not shown: His tag
T1 sequence: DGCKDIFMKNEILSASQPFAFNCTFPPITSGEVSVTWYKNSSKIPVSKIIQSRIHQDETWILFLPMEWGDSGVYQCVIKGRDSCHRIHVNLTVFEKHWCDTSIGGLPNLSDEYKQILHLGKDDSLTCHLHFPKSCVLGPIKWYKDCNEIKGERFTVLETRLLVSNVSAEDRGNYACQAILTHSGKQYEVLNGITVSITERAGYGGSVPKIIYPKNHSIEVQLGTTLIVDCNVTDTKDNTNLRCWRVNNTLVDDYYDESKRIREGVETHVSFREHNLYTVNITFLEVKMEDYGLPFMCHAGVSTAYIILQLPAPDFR
Procedure: The binding activity of anti-IL-36R antibodies to IL-36R was analyzed by ELISA using human IL-1Rrp2/IL-1R6 protein, His Tag (ACROBiosystems, IL2-H52H6) and CynoIL36R-ECD mFc (for detection of chimeric and humanized antibodies), and hIL36R-ECD hFc and CynoIL36R-ECD hFc protein (for detection of hybridoma antibodies) as antigens. A 96-well plate (Costar, 9018) was coated with 2 μg/mL antigen at 100 μL/well and incubated overnight at 4° C. After the 96-well plate was washed with a washing buffer (PBS containing 0.05% v/v Tween 20), a blocking buffer (PBS containing 2% bovine serum albumin) was added for blocking at 37° C. for 2 h. After the 96-well plate was washed with the washing buffer, 100 μL of the gradient diluted anti-IL-36R antibody of the present disclosure or the reference antibody BI655130 (the initial concentration of the antibody was 66 nM, 4-fold gradient dilution) was added to each well, and the plate was incubated at room temperature for 1 h. After the 96-well plate was washed with the washing buffer, 100 μL of horseradish peroxidase-conjugated recombinant protein A/G (TheroScientific, 32490) was added to each well, and the plate was incubated at room temperature for 1 h. After the 96-well plate was washed with the washing buffer, 100 μL of a TMB solution (Thermo, 00-4201-56) was added to each well, and the plate was incubated at room temperature for 2 min. Finally, 100 μL of a stop solution (2 N H₂SO₄) was added to each well to stop the reaction. Absorbance was read at 450 nm using a microplate reader (PE, Envision), the resulting data was analyzed using GraphPad Prism, and EC₅₀ was calculated. Binding EC₅₀ of the chimeric anti-IL-36R antibodies to hIL-36R in an ELISA assay is shown in FIG. 1. and binding EC₅₀ of the chimeric anti-IL-36R antibodies to CynoIL-36R in an ELISA assay is shown in FIG. 2. The binding of BI655130 is shown as a control, and the binding of IgG4 is shown as a negative control.

[2] = target: T2, IL-36R naturally expressed on OVCAR8 cells and on normal human epidermal keratinocytes (NHK cells) (human, UniProt Q9HB29 20-575); experiment: cell-based or functional assay
T2 sequence (looked up): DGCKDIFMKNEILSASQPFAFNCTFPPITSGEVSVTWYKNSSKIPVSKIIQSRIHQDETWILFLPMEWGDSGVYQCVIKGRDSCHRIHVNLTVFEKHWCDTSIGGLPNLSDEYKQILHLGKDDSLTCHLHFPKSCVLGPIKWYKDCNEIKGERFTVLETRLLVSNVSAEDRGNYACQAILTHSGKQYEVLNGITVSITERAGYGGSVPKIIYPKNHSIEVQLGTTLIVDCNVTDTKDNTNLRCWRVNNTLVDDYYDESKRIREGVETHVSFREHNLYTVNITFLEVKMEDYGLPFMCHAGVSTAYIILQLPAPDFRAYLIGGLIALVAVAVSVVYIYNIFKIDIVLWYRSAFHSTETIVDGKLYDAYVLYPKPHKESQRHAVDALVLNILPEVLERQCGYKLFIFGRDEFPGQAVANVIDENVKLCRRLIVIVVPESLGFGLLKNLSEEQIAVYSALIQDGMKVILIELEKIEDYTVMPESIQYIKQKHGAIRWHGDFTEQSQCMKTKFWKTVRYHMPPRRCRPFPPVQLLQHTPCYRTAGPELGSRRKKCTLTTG

[3] = target: T1, Human IL-1Rrp2/IL-1R6 protein, His Tag …; experiment: BLI (ForteBio Octet), antibody on ProA sensor, 1:1 model
Procedure: The affinity of anti-IL-36R antibodies to CynoIL36R-ECD mFc and human IL-1Rrp2/IL-IR6 protein, His Tag (ACROBiosystems, IL2-H52H6) was measured by a ForteBio molecular interaction instrument. […] And then the biosensor was used to bind CynoIL36R-ECD mFc or human IL-1Rrp2/IL-1R6 protein, His Tag which was diluted by a gradient (the initial concentration was 200 nM, 2-fold gradient dilution), the response signals were detected in real time using a Fortebio molecular interaction instrument (SARTORIUS, octet red 96e), and association and dissociation curves were obtained. After the completion of dissociation in each cycle, the biosensor was regenerated for the next capture; the procedure was repeated until the affinity of the different anti-IL-36R antibodies for IL-36R was determined. The resulting data were analyzed by Fortebio Data Analysis 11.0 software in a 1:1 (Langmuir) binding model to determine kₐ (kₒₙ) and kd (koff) values, and the dissociation constant KD was calculated by KD=kd/kₐ. The detection method essentially followed the manufacturer's recommendations, and more information could be found at www.fortebio.com.
Affinity, binding and blocking assays for humanized antibodies hz72C1-1.1, hz72C1-1.2, hz72C1-1.3, hz72C1-2.1, hz72C1-2.2 and hz72C1-2.3 as well as hz84C4-1.1, hz84C4-1.2, hz84C4-1.3, hz84C4-1.4, hz84C4-1.5, hz84C4-2.1, hz84C4-2.2, hz84C4-2.3, hz84C4-2.4 and hz84C4-2.5 were performed according to the methods of Example 4, Example 5. Example 6, Example 7 and Example 8.

B1: hz72C1-1.2 (antibody, human IgG4 S228P, kappa)
heavy: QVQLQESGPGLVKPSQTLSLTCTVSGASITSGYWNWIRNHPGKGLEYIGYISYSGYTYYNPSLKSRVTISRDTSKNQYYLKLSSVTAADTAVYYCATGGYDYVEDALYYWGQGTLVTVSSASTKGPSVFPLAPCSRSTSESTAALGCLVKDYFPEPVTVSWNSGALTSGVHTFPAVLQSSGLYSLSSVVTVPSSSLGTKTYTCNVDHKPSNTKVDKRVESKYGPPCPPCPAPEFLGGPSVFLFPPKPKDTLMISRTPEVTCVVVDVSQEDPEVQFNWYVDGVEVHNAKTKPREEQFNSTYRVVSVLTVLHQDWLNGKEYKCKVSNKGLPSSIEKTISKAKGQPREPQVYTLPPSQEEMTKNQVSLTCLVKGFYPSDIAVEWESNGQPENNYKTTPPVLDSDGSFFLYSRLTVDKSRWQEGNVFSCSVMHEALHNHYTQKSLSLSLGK
light: DIQMTQSPSSLSASVGDRVTITCRASSNVRYMYWYQQKPGKAPKLWIYLTSNLASGVPSRFSGSGSGTSYTLTISSLQPEDFATYYCQQFTTSPYTFGQGTKLEIKRTVAAPSVFIFPPSDEQLKSGTASVVCLLNNFYPREAKVQWKVDNALQSGNSQESVTEQDSKDSTYSLSSTLTLSKADYEKHKVYACEVTHQGLSSPVTKSFNRGEC
notes: Humanized, human IgG4 / kappa
- EC50 [1]: 5.02 nM

B2: hz72C1-1.1 (antibody, human IgG4 S228P, kappa)
heavy: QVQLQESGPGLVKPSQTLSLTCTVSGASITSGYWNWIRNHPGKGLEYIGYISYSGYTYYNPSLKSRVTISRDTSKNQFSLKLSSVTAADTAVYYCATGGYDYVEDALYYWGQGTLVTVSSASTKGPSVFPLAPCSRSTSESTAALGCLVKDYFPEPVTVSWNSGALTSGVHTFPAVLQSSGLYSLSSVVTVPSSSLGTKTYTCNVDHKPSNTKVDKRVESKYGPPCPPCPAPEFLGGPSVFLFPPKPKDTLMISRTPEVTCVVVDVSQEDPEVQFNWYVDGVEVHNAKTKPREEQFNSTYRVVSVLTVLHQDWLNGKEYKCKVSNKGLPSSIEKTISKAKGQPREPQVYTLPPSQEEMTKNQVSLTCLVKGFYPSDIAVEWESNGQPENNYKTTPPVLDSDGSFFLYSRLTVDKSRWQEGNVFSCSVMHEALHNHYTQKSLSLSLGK
light: B1 light
notes: Humanized, human IgG4 / kappa; also called humanized 72C1 antibody 1.1
- EC50 [1]: 2.94 nM

B3: hz72C1-2.1 (antibody, human IgG4 S228P, kappa)
heavy: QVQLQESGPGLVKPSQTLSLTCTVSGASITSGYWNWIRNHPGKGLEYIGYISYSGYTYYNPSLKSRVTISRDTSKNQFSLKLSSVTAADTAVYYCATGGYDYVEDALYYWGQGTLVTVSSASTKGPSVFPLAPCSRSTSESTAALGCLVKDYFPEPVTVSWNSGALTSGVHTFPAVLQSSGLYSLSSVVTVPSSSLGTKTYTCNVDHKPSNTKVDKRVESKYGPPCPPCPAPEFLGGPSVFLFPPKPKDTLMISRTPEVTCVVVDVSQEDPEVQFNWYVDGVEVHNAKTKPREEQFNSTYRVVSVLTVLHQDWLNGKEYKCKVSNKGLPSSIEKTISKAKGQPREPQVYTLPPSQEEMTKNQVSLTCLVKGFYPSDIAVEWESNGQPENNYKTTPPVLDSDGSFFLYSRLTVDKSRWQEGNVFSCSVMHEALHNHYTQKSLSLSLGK
light: B1 light with F90Y
notes: Humanized, human IgG4 / kappa
- EC50 [1]: 9.35 nM

B4: hz72C1-1.3 (antibody, human IgG4 S228P, kappa)
heavy: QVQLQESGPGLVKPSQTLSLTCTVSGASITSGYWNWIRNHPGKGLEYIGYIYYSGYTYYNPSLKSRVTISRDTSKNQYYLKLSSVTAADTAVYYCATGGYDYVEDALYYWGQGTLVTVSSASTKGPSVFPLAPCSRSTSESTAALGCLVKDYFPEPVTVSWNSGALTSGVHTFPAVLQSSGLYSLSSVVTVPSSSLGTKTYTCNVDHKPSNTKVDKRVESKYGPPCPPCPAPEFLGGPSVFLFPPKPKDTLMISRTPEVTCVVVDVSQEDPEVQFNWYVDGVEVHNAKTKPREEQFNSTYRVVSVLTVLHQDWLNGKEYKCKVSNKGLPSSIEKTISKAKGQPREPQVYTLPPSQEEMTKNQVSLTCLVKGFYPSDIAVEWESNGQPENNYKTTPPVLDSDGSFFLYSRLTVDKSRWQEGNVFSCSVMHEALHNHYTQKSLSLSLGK
light: B1 light
notes: Humanized, human IgG4 / kappa
- EC50 [1]: 2.86 nM

B5: hz72C1-2.2 (antibody, human IgG4 S228P, kappa)
heavy: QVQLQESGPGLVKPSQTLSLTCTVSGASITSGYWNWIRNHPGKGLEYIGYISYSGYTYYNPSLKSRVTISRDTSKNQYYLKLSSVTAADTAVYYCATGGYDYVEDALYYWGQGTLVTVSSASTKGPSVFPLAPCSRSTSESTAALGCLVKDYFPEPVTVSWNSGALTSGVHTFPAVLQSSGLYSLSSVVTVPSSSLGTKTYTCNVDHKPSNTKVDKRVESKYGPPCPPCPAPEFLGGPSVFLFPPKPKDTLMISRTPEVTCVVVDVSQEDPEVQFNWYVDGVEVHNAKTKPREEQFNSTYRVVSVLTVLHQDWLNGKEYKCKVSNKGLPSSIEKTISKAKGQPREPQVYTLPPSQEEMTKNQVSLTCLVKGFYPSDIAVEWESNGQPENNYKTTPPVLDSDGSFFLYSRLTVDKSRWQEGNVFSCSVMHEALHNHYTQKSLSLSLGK
light: B1 light with F90Y
notes: Humanized, human IgG4 / kappa
- EC50 [1]: 4.88 nM

B6: hz72C1-2.3 (antibody, human IgG4 S228P, kappa)
heavy: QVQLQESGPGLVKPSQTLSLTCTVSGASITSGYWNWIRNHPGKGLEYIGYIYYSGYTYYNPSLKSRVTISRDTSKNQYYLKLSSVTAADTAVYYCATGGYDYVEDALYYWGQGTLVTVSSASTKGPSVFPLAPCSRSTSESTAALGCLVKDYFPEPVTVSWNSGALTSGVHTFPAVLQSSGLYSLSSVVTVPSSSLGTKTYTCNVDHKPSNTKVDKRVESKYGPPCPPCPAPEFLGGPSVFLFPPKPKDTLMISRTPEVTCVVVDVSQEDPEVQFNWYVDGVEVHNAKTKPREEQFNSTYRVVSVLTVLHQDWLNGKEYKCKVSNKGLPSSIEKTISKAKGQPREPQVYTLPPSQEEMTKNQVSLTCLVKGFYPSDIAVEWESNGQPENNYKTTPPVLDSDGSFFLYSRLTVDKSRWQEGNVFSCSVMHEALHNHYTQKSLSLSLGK
light: B1 light with F90Y
notes: Humanized, human IgG4 / kappa
- EC50 [1]: 8.9 nM

B7: hz84C4-2.5 (antibody, human IgG4 S228P, kappa, V domains shown)
VH: QVQLVQSGAEVKKPGASVKVSCKVSGYFFTSYWMNWVNQAPGQGLEWMGMIHPYDSETRLAQKFKGRVTMTVDKSTSTVYMELSSLRSEDTAVYYCASSTTAFAYWGQGTLVTVSS
VL: DIQMTQSPSSLSASVGDRVTITCRASQDIGNALNWLQQKPGKAPKRLIYATSSLDPGVPSRFSGSRSGTDYTLTISSLQPEDFATYYCLQYASSPYTFGQGTKVEIKR
notes: Humanized, human IgG4 / kappa
- IC50 (M); hIL36α; IL-8 production [2]: 6.45e-12 M
- IC50 (M); hIL36αβγ; IL-8 production [2]: 4.01e-12 M
- IC50 (M); hIL36β; IL-8 production [2]: 7.06e-12 M
- IC50 (M); hIL36γ; IL-8 production [2]: 6.62e-12 M
- Maximum inhibition rate %; hIL36α; IL-8 production [2]: 100%
- Maximum inhibition rate %; hIL36αβγ; IL-8 production [2]: 99.2%
- Maximum inhibition rate %; hIL36β; IL-8 production [2]: 99.4%
- Maximum inhibition rate %; hIL36γ; IL-8 production [2]: 99.7%
- Kd [3]: 1.44 nM
- koff [3]: 0.000138 s⁻¹
- kon [3]: 96400 M⁻¹ s⁻¹

B8: BI655130 (antibody, human IgG1, kappa, L234A L235A)
heavy: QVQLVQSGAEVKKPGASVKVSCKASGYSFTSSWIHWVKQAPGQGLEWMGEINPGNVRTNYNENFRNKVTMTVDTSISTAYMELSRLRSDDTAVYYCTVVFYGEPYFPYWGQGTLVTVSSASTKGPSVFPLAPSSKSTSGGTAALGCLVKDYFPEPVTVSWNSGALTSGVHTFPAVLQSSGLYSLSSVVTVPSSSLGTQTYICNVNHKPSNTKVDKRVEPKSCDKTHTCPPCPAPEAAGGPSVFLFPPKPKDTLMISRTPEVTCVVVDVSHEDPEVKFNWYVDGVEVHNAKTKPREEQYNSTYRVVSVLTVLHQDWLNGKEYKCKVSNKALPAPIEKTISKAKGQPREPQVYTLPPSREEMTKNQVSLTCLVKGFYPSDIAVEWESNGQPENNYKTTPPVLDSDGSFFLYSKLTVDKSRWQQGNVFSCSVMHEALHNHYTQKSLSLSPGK
light: QIVLTQSPGTLSLSPGERATMTCTASSSVSSSYFHWYQQKPGQAPRLWIYRTSRLASGVPDRFSGSGSGTDFTLTISRLEPEDAATYYCHQFHRSPLTFGAGTKLEIKRTVAAPSVFIFPPSDEQLKSGTASVVCLLNNFYPREAKVQWKVDNALQSGNSQESVTEQDSKDSTYSLSSTLTLSKADYEKHKVYACEVTHQGLSSPVTKSFNRGEC
notes: also called Spesolimab
- EC50 [1]: 0.764 nM
- IC50 (M); hIL36α; IL-8 production [2]: 1.6e-11 M
- IC50 (M); hIL36αβγ; IL-8 production [2]: 1.42e-11 M
- IC50 (M); hIL36β; IL-8 production [2]: 2.45e-11 M
- IC50 (M); hIL36γ; IL-8 production [2]: 8.12e-12 M
- Maximum inhibition rate %; hIL36α; IL-8 production [2]: 99.6%
- Maximum inhibition rate %; hIL36αβγ; IL-8 production [2]: 99.9%
- Maximum inhibition rate %; hIL36β; IL-8 production [2]: 99.1%
- Maximum inhibition rate %; hIL36γ; IL-8 production [2]: 100%
- Kd [3]: 0.713 nM
- koff [3]: 5.84e-05 s⁻¹
- kon [3]: 81900 M⁻¹ s⁻¹
